The target in this data set is PABP (PABPC1) (Homo sapiens, UniProt P11940 1-383). Nature of the data set: fluorescence polarization/anisotropy; text gives nM; Fig. 2d legend prints μM; FP: 50 mM HEPES, 5 mM EDTA, 250 mM KCl, 10 mM DTT, 0.5 mg/mL BSA, 0.05% Tween-20, 0.1 mg/mL yeast RNA, 0.5 nM Cy3-RNA (pH and temperature not stated). EMSA: 10. Conditions: protein: recombinant. For orientation: In fluorescence polarisation assays a small probe gives low polarisation when free and higher when bound to something large.
Chain of PABP (PABPC1) (P11940 1-383): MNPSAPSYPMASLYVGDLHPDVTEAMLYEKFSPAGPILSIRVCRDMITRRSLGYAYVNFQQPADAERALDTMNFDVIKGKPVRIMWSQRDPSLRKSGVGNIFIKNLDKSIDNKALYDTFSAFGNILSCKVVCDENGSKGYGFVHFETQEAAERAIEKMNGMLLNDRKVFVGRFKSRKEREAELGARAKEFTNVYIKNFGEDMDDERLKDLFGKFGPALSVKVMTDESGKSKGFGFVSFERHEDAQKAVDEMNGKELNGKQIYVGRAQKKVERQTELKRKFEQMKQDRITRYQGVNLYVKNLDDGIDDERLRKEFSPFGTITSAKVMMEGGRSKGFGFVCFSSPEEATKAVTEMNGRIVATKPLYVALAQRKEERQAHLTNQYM

On to AAAAAAAAAAAA (ssRNA) [unmodified 12-base Poly(A) RNA], for which the Kd amounted to 261 ± 54 nM.

B1: Poly(A) SPOT-ON (XNA)
strand: AAAAAAAAAAAA
modifications: 2'-O-methyl throughout; phosphorothioate at the 5' and 3' terminal linkages (A*AAAAAAAAAA*A)
B1: the Kd came out at 301 ± 41 nM.

By Kd is commonly meant the equilibrium constant for the complex coming apart.

The values are drawn from publication PMC5750225, “Inhibition of Poly(A)-binding protein with a synthetic RNA mimic reduces pain sensitization in mice”.
